Measurements from article doi:10.1101/2023.06.21.545551, “Intrinsically disordered regions in the transcription factor MYC:MAX modulate DNA binding via intramolecular interactions”.

Key:
[1] = target: T1, MYC(151-439);MAX(2-160) of commercial complex (human?;human?, UniProt P01106-1;P61244 ;, |); assay: SPR; negative control bound only by MYC(352-437):MAX; SPR: 25 mM HEPES pH 8, 150 mM NaCl, 1 mM TCEP, 0.01% Tween-20, 3 mM EDTA, temperature not stated; NMR: 20 mM HEPES pH 7, 100 mM NaCl (E100; or E300), 2 mM TCEP, 5% D2O, 298 K (complexes) or 283 K (disordered fragments); conditions: protein: commercial;commercial; copies: 1;1; label: 5'-biotin on strand 1; blunt
[2] = target: T2, MYC(2-439) full-length;MAX(2-160) (human?;human?, UniProt P01106-1;P61244 ;, |); assay: as above; conditions: protein: recombinant;recombinant; tags: none;N-Strep-TEV, cleavable; copies: 1;1; label: 5'-biotin on strand 1; blunt
[3] = target: T1, MYC(151-439);MAX(2-160) of commercial …; assay: SPR; affinity between P3+P6 and full length; SPR: 25 mM HEPES pH 8, 150 mM NaCl, 1 mM TCEP, 0.01% Tween-20, 3 mM EDTA, temperature not stated; NMR: 20 mM HEPES pH 7, 100 mM NaCl (E100; or E300), 2 mM TCEP, 5% D2O, 298 K (complexes) or 283 K (disordered fragments); conditions: protein: commercial;commercial; copies: 1;1; label: 5'-biotin on strand 1; blunt
[4] = target: MYC(352-437);MAX(2-160) co-expressed (human?;human?, UniProt P01106-1;P61244 ;, |); assay: SPR; strongest of the four DNAs; Kd only in figure; SPR: 25 mM HEPES pH 8, 150 mM NaCl, 1 mM TCEP, 0.01% Tween-20, 3 mM EDTA, temperature not stated; NMR: 20 mM HEPES pH 7, 100 mM NaCl (E100; or E300), 2 mM TCEP, 5% D2O, 298 K (complexes) or 283 K (disordered fragments); conditions: protein: recombinant;recombinant; tags: N-His6 uncleavable;none; copies: 1;1; label: 5'-biotin on strand 1; blunt
[5] = target: T2, MYC(2-439) full-length;MAX(2-160); assay: SPR; range over canonical and mutant E-Boxes; SPR: 25 mM HEPES pH 8, 150 mM NaCl, 1 mM TCEP, 0.01% Tween-20, 3 mM EDTA, temperature not stated; NMR: 20 mM HEPES pH 7, 100 mM NaCl (E100; or E300), 2 mM TCEP, 5% D2O, 298 K (complexes) or 283 K (disordered fragments); conditions: protein: recombinant;recombinant; tags: none;N-Strep-TEV, cleavable; copies: 1;1; label: 5'-biotin on strand 1; blunt
[6] = target: MYC(1-439)_C0,C25;MAX(2-160) (human?;human?, UniProt P01106-1;P61244 ;, C70A;C117A;C133A;C171A;C188A;C208A;C300A;C342A;C438A|); assay: NMR; 13C-MTC on C25; 10-fold DNA; SPR: 25 mM HEPES pH 8, 150 mM NaCl, 1 mM TCEP, 0.01% Tween-20, 3 mM EDTA, temperature not stated; NMR: 20 mM HEPES pH 7, 100 mM NaCl (E100; or E300), 2 mM TCEP, 5% D2O, 298 K (complexes) or 283 K (disordered fragments); conditions: protein: recombinant;recombinant; tags: 13C-MTC label on C25;N-Strep-TEV, cleavable; copies: 1;1; blunt
Mb0 peptide MYC(11-34) = Mb0 peptide MYC(11-34) (UniProt P01106-1); assay: NMR; equimolar DNA; SPR: 25 mM HEPES pH 8, 150 mM NaCl, 1 mM TCEP, 0.01% Tween-20, 3 mM EDTA, temperature not stated; NMR: 20 mM HEPES pH 7, 100 mM NaCl (E100; or E300), 2 mM TCEP, 5% D2O, 298 K (complexes) or 283 K (disordered fragments); conditions: protein: recombinant; tags: His6-MBP-TEV cleaved; 13C-MTC on C25; blunt
MYC(256-299) = MYC(256-299) (UniProt P01106-1); assay: NMR; SPR: 25 mM HEPES pH 8, 150 mM NaCl, 1 mM TCEP, 0.01% Tween-20, 3 mM EDTA, temperature not stated; NMR: 20 mM HEPES pH 7, 100 mM NaCl (E100; or E300), 2 mM TCEP, 5% D2O, 298 K (complexes) or 283 K (disordered fragments); conditions: protein: recombinant; tags: His6-ZZ-TEV cleaved; 15N; blunt
Chain of MYC(256-299) (P01106 other isoform, or with tags, fused parts or gaps): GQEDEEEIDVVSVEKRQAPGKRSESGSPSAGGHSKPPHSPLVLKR

T2 sequence (P01106 17-454, chain 1 of 2): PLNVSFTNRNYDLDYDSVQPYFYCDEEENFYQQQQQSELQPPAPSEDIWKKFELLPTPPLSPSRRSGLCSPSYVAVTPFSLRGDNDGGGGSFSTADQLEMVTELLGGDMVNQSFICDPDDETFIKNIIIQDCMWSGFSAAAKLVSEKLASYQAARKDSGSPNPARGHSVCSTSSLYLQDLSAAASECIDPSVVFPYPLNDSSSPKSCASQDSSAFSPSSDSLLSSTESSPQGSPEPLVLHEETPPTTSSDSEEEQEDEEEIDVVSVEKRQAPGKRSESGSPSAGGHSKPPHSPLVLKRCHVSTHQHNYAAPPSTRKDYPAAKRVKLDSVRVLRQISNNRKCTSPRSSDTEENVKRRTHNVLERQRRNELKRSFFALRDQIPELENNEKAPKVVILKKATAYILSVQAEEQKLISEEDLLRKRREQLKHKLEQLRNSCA
T2 sequence (P61244 other isoform, or with tags, fused parts or gaps |, chain 2 of 2): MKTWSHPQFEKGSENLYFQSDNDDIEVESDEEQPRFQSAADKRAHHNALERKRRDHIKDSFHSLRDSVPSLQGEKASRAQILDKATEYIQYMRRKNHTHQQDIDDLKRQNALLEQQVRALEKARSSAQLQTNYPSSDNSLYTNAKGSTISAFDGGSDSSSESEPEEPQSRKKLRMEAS
T1 sequence (P01106 166-454, chain 1 of 2): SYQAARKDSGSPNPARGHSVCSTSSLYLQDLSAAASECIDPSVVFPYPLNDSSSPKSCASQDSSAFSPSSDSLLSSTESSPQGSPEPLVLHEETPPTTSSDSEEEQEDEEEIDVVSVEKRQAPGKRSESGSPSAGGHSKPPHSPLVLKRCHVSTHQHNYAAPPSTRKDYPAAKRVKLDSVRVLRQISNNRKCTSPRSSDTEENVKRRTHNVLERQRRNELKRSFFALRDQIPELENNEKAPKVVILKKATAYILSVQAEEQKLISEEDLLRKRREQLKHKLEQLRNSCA
T1 sequence (P61244 other isoform, or with tags, fused parts or gaps |, chain 2 of 2): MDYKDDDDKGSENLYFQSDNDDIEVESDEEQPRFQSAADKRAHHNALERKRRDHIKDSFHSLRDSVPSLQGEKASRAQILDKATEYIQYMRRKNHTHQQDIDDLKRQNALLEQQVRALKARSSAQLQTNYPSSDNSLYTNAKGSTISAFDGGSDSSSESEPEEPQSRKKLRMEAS
Chain of Mb0 peptide MYC(11-34) (P01106 other isoform, or with tags, fused parts or gaps): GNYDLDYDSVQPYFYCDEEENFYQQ
Chain of MYC(1-439)_C0,C25;MAX(2-160) (P01106 other isoform, or with tags, fused parts or gaps C70A;C117A;C133A;C171A;C188A;C208A;C300A;C342A;C438A|, chain 1 of 2): as the sequence (P01106 17-454, chain 1 of 2) above, with C24A, C69A, C116A, C132A, C170A, C187A, C207A, C299A, C341A, C437A counted along it
Chain of MYC(352-437);MAX(2-160) co-expressed (P01106 other isoform, or with tags, fused parts or gaps |, chain 1 of 2): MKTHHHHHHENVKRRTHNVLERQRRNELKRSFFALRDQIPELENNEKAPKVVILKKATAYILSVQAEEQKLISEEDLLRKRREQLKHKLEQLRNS
Chain of MYC(352-437);MAX(2-160) co-expressed (P61244 whole entry, chain 2 of 2, the tested form may be a part): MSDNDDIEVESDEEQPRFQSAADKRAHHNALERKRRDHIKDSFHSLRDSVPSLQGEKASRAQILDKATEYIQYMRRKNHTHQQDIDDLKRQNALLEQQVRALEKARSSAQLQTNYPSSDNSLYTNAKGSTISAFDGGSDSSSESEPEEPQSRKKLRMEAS

B1: Negative control (dsDNA)
DNA 1: CCGGTTTAGCAGCCTA
DNA 2: TAGGCTGCTAAACCGG
B1: no binding [1]; no binding [2].

B2: E-Box (SPR) (dsDNA)
DNA 1: CCGGTCACGTGGCCTA
DNA 2: TAGGCCACGTGACCGG
B2: binds [3]; binds [4]; binds [5].

B3: E-Box (NMR) (dsDNA)
DNA 1: CCGGTCACGTGGCCTA
DNA 2: TAGGCCACGTGACCGG
B3: binds [6]; no binding (Mb0 peptide MYC(11-34)); no binding (MYC(256-299)).
